Source: patent publication US20030078191A1

Columns and labels:
Experiment in all cases: cell-based or functional assay
[1] = target: Gal4ad-ZipA(35-284) fusion (pGAD424 fusion) (Escherichia coli)
[2] = target: Gal4ad-ZipA(185-328) fusion (pGAD424 fusion) (Escherichia coli) (UniProt P77173)
[3] = target: Gal4ad-ZipA(185-302) fusion (pGAD424 fusion) (Escherichia coli)
[4] = target: Gal4 activation domain alone (pGAD424 vector, no fusion) (UniProt P04386)
[5] = target: Gal4ad-ZipA(35-185) fusion (pGAD424 fusion) (Escherichia coli)
Chain of Gal4ad-ZipA(35-185) fusion (pGAD424 fusion) (Escherichia coli) (P04386 768-881): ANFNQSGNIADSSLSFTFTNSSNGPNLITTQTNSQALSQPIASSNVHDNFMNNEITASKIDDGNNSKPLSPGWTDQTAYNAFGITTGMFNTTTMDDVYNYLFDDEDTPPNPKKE

[6] = target: Gal4ad-ZipA(62-328) fusion (pGAD424 fusion) (Escherichia coli)
Chain of Gal4ad-ZipA(62-328) fusion (pGAD424 fusion) (Escherichia coli) (P04386 768-881): as above

Chain of Gal4ad-ZipA(185-302) fusion (pGAD424 fusion) (Escherichia coli) (P04386 768-881): as above
Chain of Gal4 activation domain alone (pGAD424 vector, no fusion) (P04386 768-881 limits assumed): as the sequence (P04386 768-881) above
Chain of Gal4ad-ZipA(35-284) fusion (pGAD424 fusion) (Escherichia coli) (P04386 768-881): as above

For “Gal4 DNA-binding domain alone (pAS2-1 vector, no fusion) (from UniProt P04386 1-147)”, the beta-galactosidase (lacZ reporter) activity, MUG fluorescence, yeast two-hybrid [1] was 832 units, the beta-galactosidase (lacZ reporter) activity, MUG fluorescence, yeast two-hybrid [2] was 877 units and the beta-galactosidase (lacZ reporter) activity, MUG fluorescence, yeast two-hybrid [3] was 1120 units. It also gave a beta-galactosidase (lacZ reporter) activity, MUG fluorescence, yeast two-hybrid [4] of 621 units, a beta-galactosidase (lacZ reporter) activity, MUG fluorescence, yeast two-hybrid [5] of 930 units and a beta-galactosidase (lacZ reporter) activity, MUG fluorescence, yeast two-hybrid [6] of 743 units.
